How the values were obtained:
[1] = system: P1, H2N-GPQGIAGQR(GPO)4GG-OH
[2] = system: lipopeptide LP1, CH3(CH2)16COHN-GPQGIAGQR(GPO)4GG-OH

Sequence of recombinant form of human MMP-9, containing the catalytic and fibronectin domains of the enzyme (chain, as listed by the source): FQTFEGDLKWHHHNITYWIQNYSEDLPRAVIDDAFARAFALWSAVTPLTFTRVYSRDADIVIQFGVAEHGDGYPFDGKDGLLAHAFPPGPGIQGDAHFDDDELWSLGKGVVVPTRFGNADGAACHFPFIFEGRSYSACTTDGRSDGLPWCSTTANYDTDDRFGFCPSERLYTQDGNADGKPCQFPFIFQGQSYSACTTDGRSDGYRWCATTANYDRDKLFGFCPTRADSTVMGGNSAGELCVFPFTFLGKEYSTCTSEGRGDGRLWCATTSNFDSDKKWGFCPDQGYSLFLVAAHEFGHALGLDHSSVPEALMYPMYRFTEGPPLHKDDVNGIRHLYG
Sequence of trypsin (P00760 24-246): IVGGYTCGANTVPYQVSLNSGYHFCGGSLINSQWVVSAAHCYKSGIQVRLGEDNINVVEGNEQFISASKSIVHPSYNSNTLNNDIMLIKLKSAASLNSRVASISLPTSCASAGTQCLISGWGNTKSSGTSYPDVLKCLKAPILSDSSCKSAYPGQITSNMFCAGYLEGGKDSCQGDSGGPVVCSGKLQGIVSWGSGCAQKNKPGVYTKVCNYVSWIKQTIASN

Substance | cleavage of the peptide, products analyzed by RP-HPLC [1] | cleavage of the lipopeptide, products analyzed by RP-HPLC [2] | release of encapsulated carboxyfluorescein from LP1/DSPC liposomes (fluorescence at 518 nm, five hours) [2] | release of encapsulated carboxyfluorescein from LP1/DSPC liposomes (fluorescence at 518 nm) [2]
recombinant form of human MMP-9, containing the catalytic and fibronectin domains of the enzyme | The peptide P1 (Rpn=0.04) was efficiently cleaved by the target enzyme MMP-9 | the lipopeptide LP1 (Rpn=0.11) was partially cleaved by MMP-9 (in 2 hours, FIG. 2A) | In five hours, about 55% of the encapsulated dye was found to be released | –
trypsin | efficiently cleaved by the target enzyme MMP-9 as well as by a non-specific proteolytic enzyme, trypsin | – | – | trypsin, once again failed to release the dye from the liposome

Source: patent US20060210549
